Test results taken from US8012695B2, “Methods and compositions relating to promoter regulation by MUC1 and KLF proteins” (Dana-Farber Cancer Institute, Inc., priority 2007, dated 2011).
Ends that are not written are not given here.

How the values were obtained:
KLF4 = biological target: T1, KLF4 (Homo sapiens, UniProt O43474); test: GST pull-down assay with 35S-labeled KLF4; format: binding; conditions: adsorbates to glutathione beads, 2 h at 4° C., autoradiography
T1 construct: host or cells: rabbit reticulocyte lysate, cell-free transcription/translation
Protocol: FIG. 3D is a pair of photographs of (a) an autoradiogram and (b) a Coomassie blue stained polyacrylamide gel. GST, GST-MUC1-CD(1-72), GST-MUC1-CD(47-72), or GST-MUC1-CD(1-46) were bound to glutathione-conjugated agarose beads and incubated with [^35S]-labeled KLF4 protein. The beads were washed to remove unbound KLF4 protein. The remaining adsorbates were analyzed by SDS-PAGE and autoradiography (top photograph). Input KLF4 protein is shown in the first lane of the top photograph. Input of the GST and GST-MUC1-CD fusion proteins was assessed by Coomassie blue staining. The molecular weights of the proteins (expressed in kilodaltons (kDa)) are indicated at the left of each of the photographs.
GST pull-down assays. GST and GST fusion proteins were purified by binding to glutathione-agarose beads (Sigma). ^35S-labeled KLF4, prepared in rabbit reticulocyte lysate transcription/translation (TNT) reactions (Promega Corporation), was incubated with GST or the GST fusion proteins for 2 h at 4° C. After washing, the adsorbed proteins were resolved by SDS-PAGE and analyzed by autoradiography.
To determine if MUC1-C occupies the PE21 region with KLF4, Re-ChIP assays were performed using anti-MUC1-C and anti-KLF4 antibodies. […] Moreover, DNA damage had little if any effect on this interaction (FIG. 7B). […]

[1] = test system: ZR-75-1 breast cancer cells; test: Immunoblot analysis of p53 in ZR-75-1 cells; format: cell-based, human; conditions: ZR-75-1/MUC1siRNA cells transfected with pCMV-MUC1-CD, 24 hours
Protocol: Cell culture. […] Human ZR-75-1 breast cancer cells and those stably infected with a control siRNA (ZR-75-1/CsiRNA) or one expressing a MUC1siRNA (ZR-75-1/MUC1siRNA) (Wei et al. (2006) Mol. Cell. 21: 295-305) were cultured in RPMI 1640 medium supplemented with 10% HI-FBS, 100 μg/ml streptomycin, 100 units/ml penicillin, and 2 mM L-glutamine.
Immunoblotting. […] Immunoblot analysis was performed with anti-p53 (Ab-2, Ab-6; Oncogene Research Products), anti-MUC1-C (Ab-5; Neomarkers, Freemont, Calif.), anti-KLF4 (H-180; Santa Cruz Biotechnology), anti-β-actin (Sigma), anti-IκBα (Santa Cruz Biotechnology), or anti-PCNA (F-2; Santa Cruz Biotechnology) antibodies. Whole cell lysates were also, prior to analysis by immunoblotting, first subjected to immunoprecipitation with an anti-KLF4 antibody. Immunocomplexes were detected with enhanced chemiluminescence (ECL; PerkinElmer Life Sciences).

p53 promoter [2] = test: p53 promoter-Luc reporter assay in ZR-75-1 cells; format: cell-based, human
Protocol: FIG. 4A is a bar graph (left) and a series of photographs of western blots (right) depicting the suppression of p53 gene transcription by MUC1. Bar graph, Left: ZR-75-1/MUC1siRNA cells were transfected with the −2400-p53-Luc reporter or the −320-p53-Luc reporter construct. The X-axis indicates the amount of MUC1-CD DNA (and a control LacZ expression plasmid) in μg (“μg MUC1-CD) also transfected into each cell. the indicated amounts of MUC1-CD. At 40 h after transfection, lysates were prepared from the transfected cells and assayed for luciferase activity. The Y-axis represents the relative luciferase activity expressed as fold activation (mean±SD of 3 separate experiments) compared to that obtained with empty vector-transfected cells (assigned a value of 1). Western blots, right: ZR-75-1/MUC1siRNA cells were transfected with the indicated amounts (in μg) of pCMV or pCMV-MUC1-CD vectors. At 24 hours after transfection, lysates from the indicated ZR-75-1/MUC1siRNA cells were immunoblotted (“IB”) with antibodies specific for p53, MUC1-C, or β-actin (as indicated below each photograph). […]
FIG. 4B is a pair of bar graphs. […] The Y-axis represents the relative luciferase activity expressed as the fold activation (mean±SD of 3 separate experiments) compared to that obtained with empty vector-transfected cells (assigned a value of 1). […]

p53 promoter [3] = test: p53 promoter-Luc reporter assay in MCF-7 cells; format: cell-based, human; conditions: −2400-p53-Luc, 0.5 μg MUC1-CD, increasing amounts of KLF4
Protocol: FIG. 4B is a pair of bar graphs. MCF-7 (left bar graph) or ZR-75-1 (right bar graph) cells were transfected with the −2400-p53-Luc reporter, the indicated amounts (0, 0.5, or 1 μg) of KLF4, 0.5 μg MUC1-CD and an internal control LacZ expression plasmid (pCMV-LacZ). At 40 hours after transfection, the cells were assayed for luciferase activity (as described above). The Y-axis represents the relative luciferase activity expressed as the fold activation (mean±SD of 3 separate experiments) compared to that obtained with empty vector-transfected cells (assigned a value of 1).
Transfection and reporter assays. Transfections were performed in 60 mm dishes using Fugene-6 (Roche Applied Science) or, for the luciferase assays, in 24 well plates using the calcium phosphate method (Invitrogen). Cells were transfected with the −2400-p53-Luc reporter, −2400-PE21-MUT-Luc reporter, −320-p53-Luc reporter, −320-PE21-MUT-Luc reporter (Rowland et al. (2005) Nat. Cell Biol. 7: 1074-1082) and an internal control LacZ expression plasmid (pCMV-LacZ) (Wei et al. (2001) J. Biol. Chem. 276: 16107-16112). Luciferase assays were performed with the Luciferase Assay System (Promega Corporation, Madison, Wis.) at 40 hours after transfection. Luciferase activity was normalized to that obtained for LacZ and presented as relative luciferase activity. […]

T1 sequence (O43474 10-513 limits assumed): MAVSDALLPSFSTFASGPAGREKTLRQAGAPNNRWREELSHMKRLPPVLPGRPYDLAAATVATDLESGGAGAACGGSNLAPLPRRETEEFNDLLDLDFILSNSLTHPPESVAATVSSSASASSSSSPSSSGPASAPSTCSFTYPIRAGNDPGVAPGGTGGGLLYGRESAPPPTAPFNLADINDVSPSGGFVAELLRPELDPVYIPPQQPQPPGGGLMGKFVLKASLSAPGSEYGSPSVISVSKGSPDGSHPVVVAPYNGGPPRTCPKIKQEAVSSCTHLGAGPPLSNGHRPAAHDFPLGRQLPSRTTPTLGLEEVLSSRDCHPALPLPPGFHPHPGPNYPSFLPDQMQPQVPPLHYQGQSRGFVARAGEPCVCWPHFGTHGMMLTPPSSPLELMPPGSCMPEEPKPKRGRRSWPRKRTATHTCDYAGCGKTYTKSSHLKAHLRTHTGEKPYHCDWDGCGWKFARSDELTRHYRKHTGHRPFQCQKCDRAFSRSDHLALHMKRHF

Row | binding of [35S]-labeled KLF4 to GST fusion protein (KLF4) | Molecule | p53 levels (immunoblot) [1] | p53 gene transcription (luciferase activity) (p53 promoter [2]; ZR-75-1/MUC1siRNA cells, −2400-p53-Luc or −320-p53-Luc, 40 h after transfection) | effect on KLF4-mediated suppression of p53 transcription (luciferase) (p53 promoter [2]; ZR-75-1 cells, −2400-p53-Luc, 0.5 μg MUC1-CD, increasing amounts of KLF4) | effect on KLF4-mediated suppression of p53 transcription (luciferase) (p53 promoter [3])
1 | not | MUC1-CD(47-72): GST fusion of MUC1-CD deletion fragment, amino acids 47-72 (EKVSAGNGGSSLSYTNPAVAAASANL; also: GST fusion (side not given here); listed as Homo sapiens) |  |  |  | 
2 | binds | MUC1-CD(1-72): GST fusion of the MUC1 cytoplasmic domain, amino acids 1-72 (SEQ ID NO:2) (protein, left off: a dimerising Fc or GST) CQCRRKNYGQLDIFPARDTYHPMSEYPTYHTHGRYVPPSSTDRSPYEKVSAGNGGSSLSYTNPAVAAASANL |  |  |  | 
3 |  | MUC1-CD: MUC1 cytoplasmic domain expressed in cells by transfection of the pCMV-MUC1-CD vector (protein, listed as Homo sapiens) CQCRRKNYGQLDIFPARDTYHPMSEYPTYHTHGRYVPPSSTDRSPYEKVSAGNGGSSLSYTNPAVAAASANL | downregulates p53 levels | suppresses p53 gene transcription | potentiates KLF4-mediated suppression of p53 transcription | potentiates KLF4-mediated suppression of p53 transcription
